For the experiment, the target named is unmodified guanylate-binding protein 1 (hGBP1) (human) (UniProt P32455). Description: concentration-dependent GTPase activity.

The record followed here is paper PMC2903825.

The Kd is the free concentration of one partner at which half of the binding sites on the other are occupied at equilibrium, for simple one-to-one binding. A low value points to a tighter complex.

“unmodified guanylate-binding protein 1 (hGBP1) (from UniProt P32455 1-592) (enzyme)” showed a dissociation constant Kd of 4 µM.
